The values below come from article PMC5866196.

B1: PCSK9A5-DNA (ssDNA)
DNA: CGAATCAGATTGGACCAGCCACGTTACTGATTCTTCTACCGTTTTTGCCCCCGGCACCTTCTGGAGTCCAGATGTAGGTAG
modifications: no side-chains
B2: PCSK9A7-DNA (ssDNA)
DNA: CGAATCAGATTGGACCAGTCTTCCCTATTCCTCTACCGTTTGTTCTCTTACTTTCACCTTCTGGAGTCCAGATGTAGGTAG
modifications: no side-chains
B3: PCSK9A6-DNA (ssDNA)
DNA: CGAATCAGATTGGACCAGTTTCAACCTCTTCTGCCTTCTCCACGGCTCCTTCTGCGTTGTTCCGAGTCCAGATGTAGGTAG
modifications: no side-chains
B4: PCSK9A3-DNA (ssDNA)
DNA: CGAATCAGATTGGACCAGTCTCTACAACCTCTTTCATGTCTTTAGCACTACTTATCCTGATCAGAGTCCAGATGTAGGTAG
modifications: no side-chains
B5: PCSK9A1-DNA (ssDNA)
DNA: CGAATCAGATTGGACCAGCCACTATATTCTCTCTCCTACCGTTTGCCTTTGCATCACCTTCTGGAGTCCAGATGTAGGTAG
modifications: no side-chains
B6: PCSK9A4-DNA (ssDNA)
DNA: CGAATCAGATTGGACCAGCCCCAATGCTTTTCGTTTCTATCACGTCTTTAGCGGTACCTATTCGAGTCCAGATGTAGGTAG
modifications: no side-chains
B7: PCSK9A2-DNA (ssDNA)
DNA: CGAATCAGATTGGACCAGCAACAATGATTCTTCTACCGTTTTTGCCCTCACCTTCTGCGCTGAGAGTCCAGATGTAGGTAG
modifications: no side-chains

The target in the series is PCSK9 (UniProt Q8NBP7 31-692). Description: bead retention.
PCSK9, sequence (Q8NBP7 31-692): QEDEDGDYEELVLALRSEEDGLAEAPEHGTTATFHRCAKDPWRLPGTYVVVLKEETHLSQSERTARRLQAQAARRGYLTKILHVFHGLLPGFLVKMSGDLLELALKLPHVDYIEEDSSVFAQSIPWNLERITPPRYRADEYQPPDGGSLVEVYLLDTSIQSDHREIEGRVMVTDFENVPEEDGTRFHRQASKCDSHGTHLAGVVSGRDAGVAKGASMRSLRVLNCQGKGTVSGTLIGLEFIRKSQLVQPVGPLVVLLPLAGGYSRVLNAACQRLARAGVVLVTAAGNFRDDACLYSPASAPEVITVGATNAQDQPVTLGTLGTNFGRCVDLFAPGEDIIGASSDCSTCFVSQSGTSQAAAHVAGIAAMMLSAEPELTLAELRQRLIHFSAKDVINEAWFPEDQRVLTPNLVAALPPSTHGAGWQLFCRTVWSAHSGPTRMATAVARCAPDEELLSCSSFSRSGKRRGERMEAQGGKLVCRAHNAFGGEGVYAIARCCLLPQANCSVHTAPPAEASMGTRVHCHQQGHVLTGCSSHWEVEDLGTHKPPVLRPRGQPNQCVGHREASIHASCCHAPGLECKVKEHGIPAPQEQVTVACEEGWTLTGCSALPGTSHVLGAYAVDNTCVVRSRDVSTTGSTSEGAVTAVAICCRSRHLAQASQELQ
B1: the binding result is “no binding”. B2: the binding result is reported as “no binding”. On to B3, for which the binding result is reported as “no binding”. As to B4, the binding result was “no binding”. Regarding B5, the binding result was “no binding”.

With B6, the binding result is on record as “no binding”. As for B7, the binding result is reported as “no binding”.
